Results taken from patent US20130019326.

What was measured:
[1] = test system: FLAG-PPAR gamma, wild type
[2] = test system: FLAG-PPAR gamma S273A
[3] = test system: Rb protein (Cell Signaling Technology)
[4] = test system: purified histone H1 (Millipore)

| Substance | in vitro CDK kinase assay, phosphorylation of the substrate [1] | in vitro CDK kinase assay, phosphorylation of the substrate [2] | in vitro CDK5 kinase assay, phosphorylation of the substrate [3] | in vitro CDK kinase assay, phosphorylation of the substrate [4] |
| --- | --- | --- | --- | --- |
| active cdk4/cyclin D1 kinase | Other members of the cdk protein family did not phosphorylate PPAR gamma | – | – | – |
| active cdk5/p35 kinase | The cdk5 site in murine PPAR gamma can be phosphorylated when incubated in vitro with cdk5 and its activating cofactor p35 | Mutation of serine 273 to alanine completely blocks phosphorylation of PPAR gamma | incubation with rosiglitazone does not inhibit the ability of cdk5 to phosphorylate the Rb protein | PPAR gamma is phosphorylated as efficiently under these conditions as is histone H1, a known substrate of the cdk5/p35 complex |
| active cdk2/cyclin E kinase | Other members of the cdk protein family did not phosphorylate PPAR gamma | – | – | – |
| active cdk1/cdc2 kinase | Other members of the cdk protein family did not phosphorylate PPAR gamma | – | – | – |
| active cdk2/cyclin A kinase | Other members of the cdk protein family did not phosphorylate PPAR gamma | – | – | – |
